In this assay the target is PR55α regulatory subunit of PP2A (human (endogenous in CD18/HPAF)) (UniProt P63151). In words: co-IP; PR55α immunoprecipitated with anti-PR55α (2G9) from CD18/HPAF cells stably transduced with empty vector, Flag-YAP or Flag-YAP(5SA); immunoblotted with anti-PR55α (100C1) and anti-Flag (M2).
UniProt P63151, sequence (P63151 whole entry): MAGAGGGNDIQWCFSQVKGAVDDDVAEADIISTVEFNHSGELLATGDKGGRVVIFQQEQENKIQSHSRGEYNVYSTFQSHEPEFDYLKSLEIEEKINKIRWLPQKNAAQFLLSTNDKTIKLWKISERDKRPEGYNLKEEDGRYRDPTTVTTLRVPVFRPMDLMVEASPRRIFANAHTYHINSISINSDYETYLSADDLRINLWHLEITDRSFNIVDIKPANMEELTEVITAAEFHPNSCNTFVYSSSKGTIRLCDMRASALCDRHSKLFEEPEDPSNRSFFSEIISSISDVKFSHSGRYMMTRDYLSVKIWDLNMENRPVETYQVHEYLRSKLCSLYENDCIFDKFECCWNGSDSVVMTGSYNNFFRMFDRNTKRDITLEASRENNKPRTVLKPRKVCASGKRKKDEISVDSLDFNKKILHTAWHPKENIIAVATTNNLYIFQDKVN

For the substance Flag-YAP(WT) (natural protein), the fold of the level in the anti-PR55α immunoprecipitates against Flag-YAP(5SA) was 28 fold.
